{"source": "paper doi:10.1101/2023.05.01.538945", "about": "“Structural basis of Gabija anti-phage defense and viral immune evasion” (bioRxiv, 2023)", "binders": {"B1": {"name": "Bacillus cereus VD045 GajB (Gabija protein B), untagged, co-expressed with GajA (enzyme)", "chain": "SREQIIKDGGNILVTAGAGSGKTTILVSKIEADLKENKTHYSIAAVTFTNKAAKEIEGRLGYSSRGNFIGTNDGFVESEIIRPFIKDAFGNDYPDNFTAEYFDNQFASYDKGLQVLKYQNILGTYSNPKKNFKFQLALDILKKSLVARQYIFSKYFKIFIDEYQDSDKDMHNLFMYLKDQLKIKLFIVGDPKQSIYIWRGAEPENFNGLIENSTDFNKYHLTSNFRCCQDIQNYSNLFNEETRSLIKEKNEVQNVISIADDMPISDILLKLTEEKQVLNIEAELVILVRRRNQAIEIMKELNEEGFNFIFIPQTPLDRATPNATLLKEVIKYVKNDRYSIYDLAAEIVGNLSSREIKEIQKIINELLVPNINQVLINQVLINLFAKLEITLDTREITAFTEVMMTNEFDIAFDTNEYLHKIFTVHSAKGLEFNQVIITASDYNVHYNRDTNEHYVATTRAKDKLIVIMDNKKYSDYIETLMKELKIKNIIKSI", "notes": "GajB (Gabija protein B), Superfamily 1A helicase, Bacillus cereus VD045, IMG ID 2519684553; codon-optimized synthetic gene; GajB chain of the GajAB crystal structure and of the GajAB-Gad1 cryo-EM structure; also called BcGajB"}, "B2": {"name": "Bacillus cereus VD045 GajA (Gabija protein A), co-expressed with GajB, tag removed (enzyme)", "chain": "KFSNITIKNFRNFEKVNINLDNKNVIFGMNDIGKTNFLYALRFLLDKEIRKFGFNKSDYHKHDTSKKIEIILTLDLSNYEKDEDTKKLISVVKGARTSANADVFYIALESKYDDKELYGNIILKWGSELDNLIDIPGRGNINALDNVFKVIYINPLVDLDKLFAQNKKYIFEESQGNESDEGILNNIKSLTDQVNQQIGEMTIIKGFQQEITSEYRSLKKEEVSIELKSEMAIKGFFSDIIPYIKKDGDSNYYPTSGDGRRKMLSYSIYNYLAKKKYEDKIVIYLIEEPEISLHRSMQIALSKQLFEQSTYKYFFLSTHSPELLYEMDNTRLIRVHSTEKVVCSSHMYNVEEAYGSVKKKLNKALSSALFAERVLLIEGPSEKILFEKVLDEVEPEYELNGGFLLEVGGTYFNHYVCTLNDLGITHIIKTDNDLKSKKGKKGVYELLGLNRCLNLLGRENLDEITIDIPEDIKGKKKKERLNERKKEIFKQYKNEVGEFLGERIYLSEIDLENDLYSAIGESMKRIFENEDPVHYLQKSKLFNMVELVNNLSTKDCFDVFEHEKFACLKELVGSDRG", "notes": "GajA (Gabija protein A), Class 2 OLD nuclease, Bacillus cereus VD045, IMG ID 2519684552; codon-optimized synthetic gene; GajA chain of the GajAB crystal structure; The 5xGS linker probably stays on GajA after SENP2 cleavage (surmise); also called BcGajA; source: E. coli BL21(DE3) or BL21(DE3)-RIL, co-expressed with GajB, purified (Ni-NTA, SUMO2 cleavage by hSENP2, SEC); not shown: …"}, "B3": {"name": "Bacillus cereus VD045 GajA alone, C-terminal 6xHis (enzyme)", "chain": "B2 chain", "notes": "GajA, Bacillus cereus VD045, IMG ID 2519684552; also called BcGajA; source: E. coli BL21(DE3) or BL21(DE3)-RIL, purified (Ni-NTA, SEC); for the Ni-NTA co-purification co-expressed with Shewanella phage 1/4 Gad1; not shown: 6xHis, C-terminal, kept"}}, "key": {"[1]": {"molecular_target": "B2", "test": "crystal structure; GajAB co-expressed in E. coli and purified as a complex; hanging drop, 18°C, 100 mM HEPES-NaOH pH 7.5, 2.4% PEG-400, 2.2 M ammonium sulfate; 3.0 Å", "details": "both partners purified"}, "[2]": {"molecular_target": "the molecule itself", "test": "crystal structure; GajAB co-expressed in E. coli and purified as a complex; hanging drop, 18°C, 100 mM HEPES-NaOH pH 7.5, 2.4% PEG-400, 2.2 M ammonium sulfate; 3.0 Å"}, "[3]": {"molecular_target": "the molecule itself", "test": "SEC; 16/600 S200 (Superdex 200); purified recombinant BcGajA alone, BcGajB alone and the co-expressed BcGajAB complex"}}}
{"binder": "B1", "values": [{"measurement": "stoichiometry N", "setting": "[1]", "value": "1 GajB per GajA (4:4)"}]}
{"binder": "B2", "values": [{"measurement": "stoichiometry N", "setting": "[2]", "value": 4}]}
{"binder": "B3", "values": [{"measurement": "stoichiometry N", "setting": "[3]", "value": 4}]}
